In IntAct's records for PubMed 17435768:

B1: Heterogeneous nuclear ribonucleoprotein M (Homo sapiens), P52272 (parent)
chain: MAAGVEAAAEVAATEIKMEEESGAPGVPSGNGAPGPKGEGERPAQNEKRKEKNIKRGGNRFEPYANPTKRYRAFITNIPFDVKWQSLKDLVKEKVGEVTYVELLMDAEGKSRGCAVVEFKMEESMKKAAEVLNKHSLSGRPLKVKEDPDGEHARRAMQKVMATTGGMGMGPGGPGMITIPPSILNNPNIPNEIIHALQAGRLGSTVFVANLDYKVGWKKLKEVFSMAGVVVRADILEDKDGKSRGIGTVTFEQSIEAVQAISMFNGQLLFDRPMHVKMDERALPKGDFFPPERPQQLPHGLGGIGMGLGPGGQPIDANHLNKGIGMGNIGPAGMGMEGIGFGINKMGGMEGPFGGGMENMGRFGSGMNMGRINEILSNALKRGEIIAKQGGGGGGGSVPGIERMGPGIDRLGGAGMERMGAGLGHGMDRVGSEIERMGLVMDRMGSVERMGSGIERMGPLGLDHMASSIERMGQTMERIGSGVERMGAGMGFGLERMAAPIDRVGQTIERMGSGVERMGPAIERMGLSMERMVPAGMGAGLERMGPVMDRMATGLERMGANNLERMGLERMGANSLERMGLERMGANSLERMGPAMGPALGAGIERMGLAMGGGGGASFDRAIEMERGNFGGSFAGSFGGAGGHAPGVARKACQIFVRNLPFDFTWKMLKDKFNECGHVLYADIKMENGKSKGCGVVKFESPEVAERACRMMNGMKLSGREIDVRIDRNA
B2: Heterogeneous nuclear ribonucleoprotein A1 (Homo sapiens), P09651-2 (parent)
chain: MSKSESPKEPEQLRKLFIGGLSFETTDESLRSHFEQWGTLTDCVVMRDPNTKRSRGFGFVTYATVEEVDAAMNARPHKVDGRVVEPKRAVSREDSQRPGAHLTVKKIFVGGIKEDTEEHHLRDYFEQYGKIEVIEIMTDRGSGKKRGFAFVTFDDHDSVDKIVIQKYHTVNGHNCEVRKALSKQEMASASSSQRGRSGSGNFGGGRGGGFGGNDNFGRGGNFSGRGGFGGSRGGGGYGGSGDGYNGFGNDGSNFGGGGSYNDFGNYNNQSSNFGPMKGGNFGGRSSGPYGGGGQYFAKPRNQGGYGGSSSSSSYGSGRRF

Variants of: B1
Settings: with tnpo1_human TNPO1, Q92973
Sequence of tnpo1_human TNPO1, Q92973 (Q92973 whole entry): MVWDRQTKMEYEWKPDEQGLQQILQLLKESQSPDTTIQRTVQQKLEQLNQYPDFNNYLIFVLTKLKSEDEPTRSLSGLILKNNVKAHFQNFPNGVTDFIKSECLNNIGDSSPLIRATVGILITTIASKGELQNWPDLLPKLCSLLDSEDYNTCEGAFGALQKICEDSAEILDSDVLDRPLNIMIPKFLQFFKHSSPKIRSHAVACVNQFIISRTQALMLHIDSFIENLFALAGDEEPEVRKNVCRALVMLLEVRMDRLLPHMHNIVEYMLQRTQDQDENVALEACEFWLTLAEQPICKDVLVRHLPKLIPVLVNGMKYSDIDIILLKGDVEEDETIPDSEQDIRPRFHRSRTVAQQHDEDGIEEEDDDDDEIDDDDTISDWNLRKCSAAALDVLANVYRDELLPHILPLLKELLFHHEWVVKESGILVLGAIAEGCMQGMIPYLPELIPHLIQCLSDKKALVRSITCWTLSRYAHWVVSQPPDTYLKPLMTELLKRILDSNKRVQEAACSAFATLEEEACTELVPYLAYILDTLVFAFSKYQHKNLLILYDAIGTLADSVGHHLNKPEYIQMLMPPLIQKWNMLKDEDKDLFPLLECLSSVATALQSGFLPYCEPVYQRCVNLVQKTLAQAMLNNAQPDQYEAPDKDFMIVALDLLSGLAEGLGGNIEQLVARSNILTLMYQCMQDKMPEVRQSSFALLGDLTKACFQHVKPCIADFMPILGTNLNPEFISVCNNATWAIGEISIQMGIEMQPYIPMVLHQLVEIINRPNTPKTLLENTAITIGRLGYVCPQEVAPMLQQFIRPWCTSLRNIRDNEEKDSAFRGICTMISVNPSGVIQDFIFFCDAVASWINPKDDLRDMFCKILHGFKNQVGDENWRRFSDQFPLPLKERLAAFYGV

| effect of a mutation on the interaction | Variant |
| --- | --- |
| decreasing interaction strength | P63A;Y64A |

Variants of: B2
Settings: with tnpo1_human TNPO1, Q92973

| effect of a mutation on the interaction | Variant |
| --- | --- |
| decreasing interaction | G274A |
